Data: patent US5783663A, “Peptide ligands for affinity purification of fibrinogen” (Bayer Corporation, priority 1998, dated 1998)

Legend:
[1] = target: T1, Ribonuclease S-protein (Bos taurus, UniProt P61823); test: Radiological screening of library spiked with YNFEVL-beads against 14C-S-protein, scintillation counting of isolated beads; format: binding
T1 construct: Ribonuclease S-protein was purchased from Sigma (St. Louis, Mo.); purchased Sigma (St. Louis, Mo.)
T1 sequence (P61823 47-150 limits assumed): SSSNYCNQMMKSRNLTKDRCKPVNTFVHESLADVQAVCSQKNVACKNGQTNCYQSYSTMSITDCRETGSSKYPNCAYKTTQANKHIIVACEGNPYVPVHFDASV
From the text: Following the protocol of Jentoft et al. (21), aminated beads (resin modified with TOTDA-linker) and proteins were labeled using reductive ^14 C-methylation. The ^14 C-methylated beads are hereafter referred to as ^14 C-Test Beads. The ^14 C-labeled formaldehyde was obtained from Dupont-NEN (55 Ci/mole, Boston, Mass.). Ribonuclease S-protein was purchased from Sigma (St. Louis, Mo.); human fibrinogen, from Chromogenix AB (Molndal, Sweden). To separate ^14 C-labeled protein from non-incorporated ^14 C-formaldehyde, an Econopac 10DG Desalting Column (Biorad, Hercules, Calif.) was employed. The ^14 C-labeled proteins were stored in the labeling buffer, 0.1M sodium phosphate buffer (Fisher, Pittsburgh, Pa.), pH 7, at -18° C. Pure protein solutions were quantitated using A280, with extinction coefficients of 1.5 and 0.73 for fibrinogen and S-protein, respectively. The resulting protein concentrations were 30 μM for ^14 C-S-protein, and 4 μM for ^14 C-fibrinogen. Maximal labeling yield was calculated based on maximum of two ^14 C-labeled methyl groups per mole of amino groups.
The number of disintegrations per minute, DPM, of radioactive samples was determined using a 1500 TriCarb Liquid Scintillation Analyzer from Packard (Meridan, Conn.) and CytoScint ES scintillation liquid from ICN (Casta Mesa, Calif.). Values of DPM are corrected for the background of the liquid scintillation counter (30-35 DPM) unless specified otherwise.
Library beads, 20 mg in dry weight per experiment, were first mixed with 1 ml of blocking solution to block non-specific interactions between the peptides and ^14 C-protein. For screenings against S-protein, 2% bovine serum albumin (BSA, Sigma) in PBS containing 0.05% Tween (Sigma) was used as blocking solution. For screenings against fibrinogen, either 2% BSA in PBS with 0.05% Tween or Blocker™Casein (1%) in PBS (Pierce) was used. Each mixture of beads and blocking solution was incubated in a Cryotube (Nunc, Denmark) for 2 hours on a tube rotator.
The blocked library beads were then exposed to target protein by pipetting the ^14 C-labeled protein directly into the mixture of beads and blocking solution. […] For fibrinogen experiments, 13 μl and 65 μl of the 4 μM ^14 C-fibrinogen solution was added, yielding final fibrinogen concentrations of 50 nM and 250 nM, respectively. The mixtures of beads, blocking solution, and protein solution were further rotated for 1.5 hours (S-protein experiment) and for 1 hour (fibrinogen experiment).
After completion of blocking and binding, the beads were transferred to a Polyprep column (Biorad) and rinsed with PBS containing 0.05% Tween 20 (Sigma) until the column flow-through reached background DPM levels. The total rinsing volumes were 200 ml and 140 ml for S-protein and fibrinogen, respectively. […]

[2] = target: T2, S-protein (Bos taurus, UniProt P61823); details: reference (3); cited from earlier work
T2 sequence (P61823 47-150 limits assumed): T1 sequence (P61823 47-150 limits assumed)

With YNFEVL the “amount of protein bound per bead, average” value ([1]; 14C-S-protein 1 µM in PBS with 0.05% Tween 20, 2% BSA, average of isolated positive beads) was 133 fmol protein/bead, the “radioactivity of 14C-S-protein bound per bead” value ([1]; 14C-S-protein 1 µM in PBS with 0.05% Tween 20, 2% BSA, background (33 DPM) subtracted) was 41-243 DPM/bead and the “amount of protein bound per bead” value ([1]; 14C-S-protein 1 µM in PBS with 0.05% Tween 20, 2% BSA, range over isolated positive beads) was 49-289 fmol protein/bead. The “peptide to protein ratio (YNFEVL-peptide molecules to 1 S-protein molecule)” value ([1]; from average 70 pmol peptide/bead and 133 fmol protein/bead) was roughly 500 and the “association constant for binding S-protein” value [2] was 10^4 -10^5 M^-1.
